# Experimental data reported in PMC10427625, “Structural basis for negative regulation of the Escherichia coli maltose system” (Nature Communications, 2023).
# Positions count from the first letter of the chain named. Numbers in names are those of the source.
# B1: MalT (wild type), N-terminally His-tagged (natural protein, Escherichia coli, UniProt P06993 1-901, looked up)
# chain: MLIPSKLSRPVRLDHTVVRERLLAKLSGANNFRLALITSPAGYGKTTLISQWAAGKNDIGWYSLDEGDNQQERFASYLIAAVQQATNGHCAICETMAQKRQYASLTSLFAQLFIELAEWHSPLYLVIDDYHLITNPVIHESMRFFIRHQPENLTLVVLSRNLPQLGIANLRVRDQLLEIGSQQLAFTHQEAKQFFDCRLSSPIEAAESSRICDDVSGWATALQLIALSARQNTHSAHKSARRLAGINASHLSDYLVDEVLDNVDLATRHFLLKSAILRSMNDALITRVTGEENGQMRLEEIERQGLFLQRMDDTGEWFCYHPLFGNFLRQRCQWELAAELPEIHRAAAESWMAQGFPSEAIHHALAAGDALMLRDILLNHAWSLFNHSELSLLEESLKALPWDSLLENPQLVLLQAWLMQSQHRYGEVNTLLARAEHEIKDIREDTMHAEFNALRAQVAINDGNPDEAERLAKLALEELPPGWFYSRIVATSVLGEVLHCKGELTRSLALMQQTEQMARQHDVWHYALWSLIQQSEILFAQGFLQTAWETQEKAFQLINEQHLEQLPMHEFLVRIRAQLLWAWARLDEAEASARSGIEVLSSYQPQQQLQCLAMLIQCSLARGDLDNARSQLNRLENLLGNGKYHSDWISNANKVRVIYWQMTGDKAAAANWLRHTAKPEFANNHFLQGQWRNIARAQILLGEFEPAEIVLEELNENARSLRLMSDLNRNLLLLNQLYWQAGRKSDAQRVLLDALKLANRTGFISHFVIEGEAMAQQLRQLIQLNTLPELEQHRAQRILREINQHHRHKFAHFDENFVERLLNHPEVPELIRTSPLTQREWQVLGLIYSGYSNEQIAGELEVAATTIKTHIRNLYQKLGVAHRQDAVQHAQQLLKMMGYGV
# notes: Purified with 0.1 mM ADP or 0.4 mM ATP; the elution at 103 kDa fits the whole protein; In PDB 8BOB only residues 1-423 are well defined; also called WT MalT; MalT WT; source: E. coli BL21 (DE3) ΔmalT220, purified (Ni Sepharose, gel filtration)
# B2: MalT-S8A, N-terminally His-tagged (natural protein, Escherichia coli, UniProt P06993 1-901, looked up)
# chain: B1 chain with S8A
# notes: MalT of Escherichia coli, variant of plasmid pOM206 made by site-directed mutagenesis; source: E. coli BL21 (DE3) ΔmalT220, purified (Ni Sepharose, gel filtration)
# B3: MalT-R9S, N-terminally His-tagged (natural protein, Escherichia coli, UniProt P06993 1-901, looked up)
# chain: B1 chain with R9S
# notes: as for B2
# B4: MalT-S5L, N-terminally His-tagged (natural protein, Escherichia coli, UniProt P06993 1-901, looked up)
# chain: B1 chain with S5L
# notes: as for B2
# B5: MalY (wild type), GST tag removed (enzyme, Escherichia coli, UniProt P23256 1-390, looked up)
# chain: MFDFSKVVDRHGTWCTQWDYVADRFGTADLLPFTISDMDFATAPCIIEALNQRLMHGVFGYSRWKNDEFLAAIAHWFSTQHYTAIDSQTVVYGPSVIYMVSELIRQWSETGEGVVIHTPAYDAFYKAIEGNQRTVMPVALEKQADGWFCDMGKLEAVLAKPECKIMLLCSPQNPTGKVWTCDELEIMADLCERHGVRVISDEIHMDMVWGEQPHIPWSNVARGDWALLTSGSKSFNIPALTGAYGIIENSSSRDAYLSALKGRDGLSSPSVLALTAHIAAYQQGAPWLDALRIYLKDNLTYIADKMNAAFPELNWQIPQSTYLAWLDLRPLNIDDNALQKALIEQEKVAIMPGYTYGEEGRGFVRLNAGCPRSKLEKGVAGLINAIRAVR
# notes: MalY, PLP-dependent dimeric enzyme of E. coli; full-length malY amplified from E. coli genomic DNA, cloned in pGEX-6P-1; the printed mass of 2 × 43.5 kDa fits the untagged protein; Each subunit holds the cofactor PLP; also called MalY WT; source: E. coli BL21 (DE3) ΔmalT220, purified (Glutathione Sepharose, gel filtration); not shown: GST, N-terminal, cleaved
# B6: MalT-R143A, N-terminally His-tagged (natural protein, Escherichia coli, UniProt P06993 1-901, looked up)
# chain: B1 chain with R143A
# notes: as for B2
# B7: MalT-N169A, N-terminally His-tagged (natural protein, Escherichia coli, UniProt P06993 1-901, looked up)
# chain: B1 chain with N169A
# notes: as for B2
# B8: MalT-E140A, N-terminally His-tagged (natural protein, Escherichia coli, UniProt P06993 1-901, looked up)
# chain: B1 chain with E140A
# notes: as for B2
# B9: MalT-R173A, N-terminally His-tagged (natural protein, Escherichia coli, UniProt P06993 1-901, looked up)
# chain: B1 chain with R173A
# notes: as for B2
# Key:
# [1] = target: ADP; experiment: luciferase assay of protein-bound nucleotide; parameters: unit not given here; details: parent: est. 98; read off a plot
# [2] = target: ATP; experiment: luciferase assay of protein-bound nucleotide; parameters: unit not given here; details: parent: est. 0; read off a plot
# [3] = target: B5; experiment: cryo-EM structure; purified MalT-MalY complex at about 0.5 mg/ml, ADP and PLP bound; 2.94 Å, C2 symmetry; details: both partners purified
# [4] = target: the molecule itself; experiment: SEC; Superdex 200 Increase 10/300 GL, in the presence of 1 mM maltotriose and 0.1 mM ADP; same molar amounts of MalT and MalY WT or MalY-D182A/E185A/S218A, separately or together; fractions on SDS-PAGE
# [5] = target: the molecule itself; experiment: SEC; Superose 6 Increase 10/300 GL, 4 °C; MalT pre-incubated at 20 °C for 20 min in buffer I; run in buffer E with 1 mM maltotriose and 0.4 mM ATP; self-association of MalT
# [6] = target: B1; experiment: SEC; Superdex 200 Increase 10/300 GL, 4 °C, in the presence of ADP; MalT (buffer A, 0.1 mM ADP) and MalY (buffer TKCl, 10 μM PLP) each alone, or incubated at a 1:1 molar ratio on ice for 30 min and run in buffer TKCl with 0.1 mM ADP and 10 μM PLP; details: both partners purified
# [7] = target: the molecule itself; experiment: as above
molecule,measurement,setting,value
"MalT (wild type), N-terminally His-tagged (from UniProt P06993) K6A",other: Nucleotide content,[1],13
same,other: Nucleotide content,[2],58
"MalT (wild type), N-terminally His-tagged (from UniProt P06993) R19A",other: Nucleotide content,[1],28
same,other: Nucleotide content,[2],7.5
B1,stoichiometry N,[3],1 MalT per MalY (printed as 2:2)
same,binding result,[4],binds
B2,binding result,[5],binds
B3,binding result,[5],binds
B4,binding result,[5],binds
B5,binding result,[6],binds
same,stoichiometry N,[7],2
B6,binding result,[5],binds
B7,binding result,[5],binds
B8,binding result,[5],binds
B9,binding result,[5],binds
